These results are taken from patent US20210403579A1 (DELINIA, published 2021).

Positions count from the first letter of the chain named.

One assay has as its target T1, Human ST2 (human, UniProt Q01638 19-328, limits assumed).
T1 construct: also called human ST2 protein; Interleukin 1 receptor-like 1
T1 sequence (looked up): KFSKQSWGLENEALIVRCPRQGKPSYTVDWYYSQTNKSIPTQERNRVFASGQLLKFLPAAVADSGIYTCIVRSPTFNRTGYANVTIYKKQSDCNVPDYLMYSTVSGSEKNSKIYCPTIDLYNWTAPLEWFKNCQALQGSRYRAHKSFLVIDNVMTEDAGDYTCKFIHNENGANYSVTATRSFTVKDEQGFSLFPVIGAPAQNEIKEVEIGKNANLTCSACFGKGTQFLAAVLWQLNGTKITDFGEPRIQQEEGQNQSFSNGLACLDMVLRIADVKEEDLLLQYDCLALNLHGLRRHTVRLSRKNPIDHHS
Put plainly: SPR (Carterra), antibody immobilized, ST2 analyte. The protocol:
(§1) Binding of the reformatted human ST2 antibodies to the human and mouse ST2 proteins was evaluated by surface plasmon resonance (SPR), using a high throughput antibody screening and characterization platform from Carterra (Salt Lake City, Utah).

A further assay has as its target T2, Mouse ST2 (mouse, UniProt P14719 27-332, limits assumed).
T2 construct: also called mouse ST2 protein
T2 sequence (looked up): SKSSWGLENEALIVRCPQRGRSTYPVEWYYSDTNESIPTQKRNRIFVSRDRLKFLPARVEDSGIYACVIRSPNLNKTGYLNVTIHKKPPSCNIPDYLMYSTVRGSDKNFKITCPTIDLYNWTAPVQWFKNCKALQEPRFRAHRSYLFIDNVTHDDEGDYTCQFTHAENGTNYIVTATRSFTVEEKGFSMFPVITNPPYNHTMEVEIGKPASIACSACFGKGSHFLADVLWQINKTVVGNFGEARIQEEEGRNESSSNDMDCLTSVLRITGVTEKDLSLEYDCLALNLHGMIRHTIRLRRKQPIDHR
Put plainly: SPR (Carterra), antibody immobilized, ST2 analyte, 1:1. The protocol:
as §1

B1: Human ST2 IgG1 Antibody 98 (antibody, V domains shown)
VH: EVQLLESGGGLVKPGGSLRLSCAASGFTFSSYWMSWVRQAPGKGLEWVSAISGTAINTYYADSVKGRFTISRDDSKNTLYLQMNSLKTEDTAVYYCARVRRDSSGGGAFDIWGQGTMVTVSS
VL: DIQMTQSPSSLSASVGDRVTITCRASQGISNNLNWYQQKPGKAPKLLIYAASSLQTGVPSRFSGSGSGTDFTLTISSLQPEDFATYYCQQSYSTPPTFGQGTKVEIKR
notes: IgG1; also called ST2 Antibody 98
Turning to B1, in the assay with Human ST2, the Kd – broadly, a measure of binding affinity in units of concentration – amounted to 95 nM; the koff (as a rule, the first-order rate constant of dissociation) turned out to be 0.025 s⁻¹; the kon (commonly the second-order rate constant of association) came to 270000 M⁻¹ s⁻¹.

B2: Human ST2 IgG1 Antibody 100 (antibody, V domains shown)
VH: EVQLLESGGGLVQPGGSLRLSCAASGFTFSNYAMAWVRQAPGKGLEWVSWISGSGSYIYYADSVKGRFTISRDNSKNTLYLQMNSLRAEDTAVYYCARRGSSWSNFDYWGQGTLVTVSS
VL: B1 VL with G28T, N31T, N32Y, A50D, S53N, Q55E, P96I
notes: IgG1; also called ST2 Antibody 100
For B2, in the assay with Human ST2, binding was put at a Kd of 342 nM, the koff was 0.074 s⁻¹ and the kon was determined as 220000 M⁻¹ s⁻¹.

B3: Human ST2 IgG1 Antibody 19 (antibody, V domains shown)
VH: EVQLLESGGGLVQPGGSLRLSCAASGFSFSHAWMSWVRQAPGKGLEWVSVIHSGGSTFYADSVKGRFTISRDNSKNTLYLQMNSLRAEDTAVYYCARIGKGGGFDYWGQGTLVTVSS
VL: B1 VL with G28D, S30G, N31S, N32W, N34A, T56S
notes: IgG1, kappa; also called ST2 Antibody 19
In the case of B3, in the assay with Mouse ST2, the Kd was determined as 311 nM, the koff is 0.11 s⁻¹ and the kon was found to be 370000 M⁻¹ s⁻¹.

B4: Human ST2 IgG1 Antibody 20 (antibody, V domains shown)
VH: EVQLLESGAEVKKPGSSVKVSCKASGGTFSSYAISWVRQAPGQGLEWMGGIIPIFGTANYAQKFQGRVTITADESTSTAYMELSSLRSEDTAVYYCASGFYSNDLYYYYYMDVWGKGTTVTVSS
VL: DIQMTQSPSSLSASVGDRVTITCRASQSISSWLAWYQQKPGKAPKLLIYDASNLKTGVPSRFSGSGSGTDFTLTISSLQPEDFATYYCQQTYAIPLTFGGGTKVEIKR
notes: IgG1, kappa; also called ST2 Antibody 20
Take B4: in the assay with Mouse ST2, binding was put at a Kd of 2200 nM, the dissociation rate constant (koff) is 0.17 s⁻¹ and the on-rate constant (kon) worked out at 77000 M⁻¹ s⁻¹.

B5: Human ST2 IgG1 Antibody 21 (antibody, V domains shown)
VH: QVQLVQSGAEVKKPGASVKVSCKASGYTFSNHYMHWVRQAPGQGLEWMGWVNPTSGNTGYAQKFQGRVTMTRDTSTSTVYMELSSLRSEDTAVYYCARDLGVTYFDLWGRGTLVTVSS
VL: B4 VL with S28G, D50E, N53H, K55E, Q89L, T91D, A93N, I94Y
notes: IgG1, kappa; also called ST2 Antibody 21
In the assay with Mouse ST2, B5 showed a Kd of 999 nM, a koff of 0.0085 s⁻¹ and a kon of 8500 M⁻¹ s⁻¹.

B6: Human ST2 IgG1 Antibody 92 (antibody, V domains shown)
VH: QVQLVQSGAEVKKPGSSVKVSCKASGGSFSGQAVNWVRQAPGQGLEWMGGFVSLFGTANYAQKFQGRVTITADESTSTAYMELSSLRSEDTAVYYCARDREGLGWYFDLWGRGTLVTVSS
VL: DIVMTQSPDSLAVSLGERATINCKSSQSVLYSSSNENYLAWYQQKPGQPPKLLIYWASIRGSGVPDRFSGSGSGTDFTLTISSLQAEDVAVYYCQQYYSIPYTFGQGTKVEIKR
notes: IgG1; also called ST2 Antibody 92
On to B6, for which, in the assay with Human ST2, the Kd was determined as 662 nM, the koff was determined as 0.13 s⁻¹ and the on-rate constant (kon) was 200000 M⁻¹ s⁻¹.

B7: Human ST2 IgG1 Antibody 99 (antibody, V domains shown)
VH: EVQLLESGGGLVQPGGSLRLSCAASGFTFSDYYMNWVRQAPGKGLEWVSTISGFGESTFYADSVKGRFTISRDNSKNTLYLQMNSLRAEDTAVYYCARLGAARAFDIWGQGTTVTVSS
VL: DIQMTQSPSSLSASVGDRVTITCRASQSIGSWMAWYQQKPGKAPKLLIYAASTLQSGVPSRFSGSGSGTDFTLTISSLQPEDFATYYCQQSYTTPITFGPGTKVDIKR
notes: IgG1; also called ST2 Antibody 99
In the assay with Human ST2, B7 registered a Kd of 192 nM, a koff of 0.089 s⁻¹ and an association rate constant (kon) of 460000 M⁻¹ s⁻¹.

B8: Human ST2 IgG1 Antibody 91 (antibody, V domains shown)
VH: EVQLLESGGGLVKPGGSLRLSCAASGFTFSSYWMSWVRQAPGKGLEWVSVIYSGGSTYYADSVKGRFTISRDDSKNTLYLQMNSLKTEDTAVYYCARGLGWFDPWGQGTLVTVSS
VL: DIQMTQSPSSLSASVGDRVTITCQANQHIGNSLNWYQQKPGKAPKLLIFAASRLQSGVPSRFSGSGSGTDFTLTISSLQPEDFATYYCQQSYGTPLTFGGGTKVEIKR
notes: IgG1; also called ST2 Antibody 91
In the assay with Human ST2, B8 registered a Kd of 256 nM, a koff of 0.041 s⁻¹ and an association rate constant (kon) of 160000 M⁻¹ s⁻¹.

B9: Human ST2 IgG1 Antibody 9 (antibody, V domains shown)
VH: EVQLLESGGGLVQPGGSLRLSCAASGFAFSSHWMHWVRQAPGKGLEWVATISSGSHSIHYADSVKGRFTISRDNSKNTLYLQMNSLRAEDTAVYYCAREAGTSYYYYGMDVWGKGTTVTVSS
VL: B1 VL with R24Q, G28D, S30R, N32Y, A50K, Q55E, T56S, Q100G
notes: IgG1, kappa; also called ST2 Antibody 9
In the assay with Mouse ST2, B9 gave an equilibrium dissociation constant (Kd) of 351 nM, a koff of 0.032 s⁻¹ and a kon of 91000 M⁻¹ s⁻¹.

B10: Human ST2 IgG1 Antibody 94 (antibody, V domains shown)
VH: QVQLVQSGAEVKKPGSSVKVSCKASGGILNSYAITWVRQAPGQGLEWMGRIIPILGIANYAQKFQGRVTITADESTSTAYMELSSLRSEDTAVYYCVENESGPLFDYWGQGTLVTVSS
VL: EIVMTQSPATLSVSPGERATLSCRASQSVYSSYLAWYQQKPGQAPRLLIYGTSSRAAGIPARFSGSGSGTEFTLTISSLQSEDFAVYYCQQYYSTPYTFGQGTKVEIKR
notes: IgG1; also called ST2 Antibody 94
In the assay with Human ST2, B10 gave a Kd of 483 nM, a koff of 0.062 s⁻¹ and an association rate constant (kon) of 130000 M⁻¹ s⁻¹.

B11: Human ST2 IgG1 Antibody 93 (antibody, V domains shown)
VH: QVQLVQSGAEVKKPGSSVKVSCKASGGTFSTYAISWVRQAPGQGLEWMGGIIPSFNAPSYAQKFQGRVTITADKSTSTAYMELSSLRSEDTAVYYCARVVPAAIVGWYFDLWGRGTLVTVSS
VL: DIVMTQSPLSLPVTPGEPASISCRSSQSLLHSNGYNYLDWYLQKPGQSPQLLIYAASTLQTGVPDRFSGSGSGTDFTLKISRVEAEDVGVYYCMQALQTPPTFGQGTKVEIKR
notes: IgG1; also called ST2 Antibody 93
In the assay with Human ST2, B11 yielded a Kd of 728 nM, a koff of 0.11 s⁻¹ and a kon of 150000 M⁻¹ s⁻¹.

B12: Human ST2 IgG1 Antibody 96 (antibody, V domains shown)
VH: QVQLVQSGAEVKKPGSSVKVSCKASGFSFSTYGVAWVRQAPGQGLEWMGGFVPIIGSANYAQKFQGRVTITADESTSTAYMELSSLRSEDTAVYYCARDYGGNLDYWGQGTLVTVSS
VL: B11 VL with T58S, T61S, A96G, L97A, Q98H, T99W
notes: IgG1; also called ST2 Antibody 96
In the assay with Human ST2, B12 showed a Kd of 337 nM, a koff of 0.097 s⁻¹ and a kon of 290000 M⁻¹ s⁻¹.

B13: Human ST2 IgG1 Antibody 95 (antibody, V domains shown)
VH: QVQLVQSGAEVKKPGSSVKVSCKASGYTFTSYGISWVRQAPGQGLEWMGGIIPIFGTANYAQKFQGRVTITADESTSTAYMELSSLRSEDTAVYYCARVMARRDGYNFKGGWYFDLWGRGTLVTVSS
VL: B11 VL with T58S, T61S, Q98E, V109L
notes: IgG1; also called ST2 Antibody 95
Take B13: in the assay with Human ST2, the Kd was 446 nM, the koff stood at 0.0086 s⁻¹ and the kon amounted to 19000 M⁻¹ s⁻¹.

B14: Human ST2 IgG1 Antibody 16 (antibody, V domains shown)
VH: QVQLVQSGAEVKKPGASVKVSCKASGYTFTSHYMHWVRQAPGQGLEWMGIINPSGGSTSYAQKFQGRVTMTRDTSTSTVYMELSSLRSEDTAVYYCARAGIGYLAAHDLYYYYGMDVWGRGTLVTVSS
VL: EIVMTQSPATLSVSPGERATLSCRASQSVSSNFAWYQQKPGQAPRLLIYGASTRATGIPARFSGSGSGTEFTLTISSLQSEDFAVYYCQQYYSTPYTFGQGTKVEIKR
notes: IgG1, kappa; also called ST2 Antibody 16
In the assay with Mouse ST2, B14 gave a dissociation constant (Kd) of 315 nM, a koff of 0.1 s⁻¹ and a kon of 320000 M⁻¹ s⁻¹.
